Results published in publication PMC4323794.
Where two headings read alike, the source gives them in different places.

Columns and labels:
[1] = target: ΔD′D3‐VWF with Ala mutations replacing Thr/Ser (ΔD′D3OG‾‐VWF) (human) (UniProt P04275); test: ELISA
[2] = target: Dimeric full‐length VWF (ΔPro‐VWF) (human) (UniProt P04275); test: ELISA
[3] = target: ΔD′D3‐VWF lacking the NFP (ΔD′D3NFP‾‐VWF) (human) (UniProt P04275); test: ELISA
[4] = target: ΔD′D3‐VWF lacking the NFP (ΔD′D3NFP‾‐VWF) (human) (UniProt P04275); test: ELISA; remark: listed apart in the source
[5] = target: GpIbα‐Fc fusion protein; test: SPR
[6] = target: GpIbα‐Fc fusion protein; test: ELISA

Kd [5] [nM]	Kd [6] [nM]	further results	Substance
–	–	Kd [1]: 5 nM; Kd [2]: 15 nM; Kd [3]: 7 nM; Kd [4]: 7.5 nM	GpIbα‐Fc fusion protein
1700	–	–	D′D3‐A1 (from UniProt P04275 764-1480) (domain or fragment)
–	2.4	–	ΔD′D3‐VWF with Ala mutations replacing Thr/Ser (ΔD′D3OG‾‐VWF) (from UniProt P04275 1243-2813) (domain or fragment)
1200	–	–	VWF‐A1 (monomeric A1 domain with the N‐terminal flanking peptide) (from UniProt P04275 1243-1480) (domain or fragment)
–	102	–	Dimeric full‐length VWF (ΔPro‐VWF) (from UniProt P04275 764-2813) (natural protein)
–	0.7	–	ΔD′D3‐VWF lacking the NFP (ΔD′D3NFP‾‐VWF) (from UniProt P04275 1267-2813) (domain or fragment)
